This passage reports Kd results from patent publication US20140363428A1 (Chugai, published 2014).

B1: Fv-4-F1097 (antibody, human IgG1, kappa)
heavy: QVQLQESGPGLVKPSETLSLTCAVSGHSISHDHAWSWVRQPPGEGLEWIGFISYSGITNYNPSLQGRVTISRDNSKNTLYLQMNSLRAEDTAVYYCARSLARTTAMDYWGEGTLVTVSSASTKGPSVFPLAPSSKSTSGGTAALGCLVKDYFPEPVTVSWNSGALTSGVHTFPAVLQSSGLYSLSSVVTVPSSSLGTQTYICNVNHKPSNTKVDKKVEPKSCDKTHTCPPCPAPELLGGPSVFLFPPKPKDTLYISRTPEVTCVVVDVSHEDPEVKFNWYVDGVEVHNAKTKPREEQYNSTYRVVSVLTVLHQDWLNGKEYKCKVSNKALPAPIEKTISKAKGQPREPQVYTLPPSRDELTKNQVSLTCLVKGFYPSDIAVEWESNNQSENNYKTTPPVLDSDGSFFLYSKLTVDKSRWQQGNVFSCSVMHEALHYHYTQKSLSLSP
light: DIQMTQSPSSLSASVGDSVTITCQASTDISSHLNWYQQKPGKAPELLIYYGSHLLSGVPSRFSGSGSGTDFTFTISSLEAEDAATYYCGQGNRLPYTFGQGTKVEIERTVAAPSVFIFPPSDEQLKSGTASVVCLLNNFYPREAKVQWKVDNALQSGNSQESVTEQDSKDSTYSLSSTLTLSKADYEKHKVYACEVTHQGLSSPVTKSFNRGEC
B2: Fv-4-F1382 (antibody, human IgG1, kappa)
heavy: QVQLQESGPGLVKPSETLSLTCAVSGHSISHDHAWSWVRQPPGEGLEWIGFISYSGITNYNPSLQGRVTISRDNSKNTLYLQMNSLRAEDTAVYYCARSLARTTAMDYWGEGTLVTVSSASTKGPSVFPLAPSSKSTSGGTAALGCLVKDYFPEPVTVSWNSGALTSGVHTFPAVLQSSGLYSLSSVVTVPSSSLGTQTYICNVNHKPSNTKVDKKVEPKSCDKTHTCPPCPAPELLGGPSVFLFPPKPKDTLMISRTPEVTCVVVDVSHEDPEVKFNWYVDGVEVHNAKTKPREEQYNSTYRVVSVLTVLHQDWLNGKEYKCKVSNKALPAPIEKTISKAKGQPREPQVYTLPPSRDELTKNQVSLTCLVKGFYPSDIAVEWESNGQPENNYKTTPPVLDSDGSFFLYSKLTVDKSRWQQGNVFSCKVLHEALHSHYTQKSLSLSP
light: DIQMTQSPSSLSASVGDSVTITCQASTDISSHLNWYQQKPGKAPELLIYYGSHLLSGVPSRFSGSGSGTDFTFTISSLEAEDAATYYCGQGNRLPYTFGQGTKVEIERTVAAPSVFIFPPSDEQLKSGTASVVCLLNNFYPREAKVQWKVDNALQSGNSQESVTEQDSKDSTYSLSSTLTLSKADYEKHKVYACEVTHQGLSSPVTKSFNRGEC
B3: Fv-4-F1388 (antibody, human IgG1, kappa)
heavy: QVQLQESGPGLVKPSETLSLTCAVSGHSISHDHAWSWVRQPPGEGLEWIGFISYSGITNYNPSLQGRVTISRDNSKNTLYLQMNSLRAEDTAVYYCARSLARTTAMDYWGEGTLVTVSSASTKGPSVFPLAPSSKSTSGGTAALGCLVKDYFPEPVTVSWNSGALTSGVHTFPAVLQSSGLYSLSSVVTVPSSSLGTQTYICNVNHKPSNTKVDKKVEPKSCDKTHTCPPCPAPELLGGPSVFLFPPKPKDTLMISRTPEVTCVVVDVSHEDPEVKFNWYVDGVEVHNAKTKPREEQYNSTYRVVSVLTVLHQDWLNGKEYKCKVSNKALPAPIEKTISKAKGQPREPQVYTLPPSRDELTKNQVSLTCLVKGFYPSDIAVEWESNGQPENNYKTTPPVLDSDGSFFLYSKLTVDKSRWQQGNVFSCSVLHEALHSHFTQKSLSLSP
light: DIQMTQSPSSLSASVGDSVTITCQASTDISSHLNWYQQKPGKAPELLIYYGSHLLSGVPSRFSGSGSGTDFTFTISSLEAEDAATYYCGQGNRLPYTFGQGTKVEIERTVAAPSVFIFPPSDEQLKSGTASVVCLLNNFYPREAKVQWKVDNALQSGNSQESVTEQDSKDSTYSLSSTLTLSKADYEKHKVYACEVTHQGLSSPVTKSFNRGEC
B4: Fv-4-F1386 (antibody, human IgG1, kappa)
heavy: QVQLQESGPGLVKPSETLSLTCAVSGHSISHDHAWSWVRQPPGEGLEWIGFISYSGITNYNPSLQGRVTISRDNSKNTLYLQMNSLRAEDTAVYYCARSLARTTAMDYWGEGTLVTVSSASTKGPSVFPLAPSSKSTSGGTAALGCLVKDYFPEPVTVSWNSGALTSGVHTFPAVLQSSGLYSLSSVVTVPSSSLGTQTYICNVNHKPSNTKVDKKVEPKSCDKTHTCPPCPAPELLGGPSVFLFPPKPKDTLMISRTPEVTCVVVDVSHEDPEVKFNWYVDGVEVHNAKTKPREEQYNSTYRVVSVLTVLHQDWLNGKEYKCKVSNKALPAPIEKTISKAKGQPREPQVYTLPPSRDELTKNQVSLTCLVKGFYPSDIAVEWESNGQPENNYKTTPPVLDSDGSFFLYSKLTVDKSRWQQGNVFSCYVLHEALHSHYTQKSLSLSP
light: DIQMTQSPSSLSASVGDSVTITCQASTDISSHLNWYQQKPGKAPELLIYYGSHLLSGVPSRFSGSGSGTDFTFTISSLEAEDAATYYCGQGNRLPYTFGQGTKVEIERTVAAPSVFIFPPSDEQLKSGTASVVCLLNNFYPREAKVQWKVDNALQSGNSQESVTEQDSKDSTYSLSSTLTLSKADYEKHKVYACEVTHQGLSSPVTKSFNRGEC
B5: Fv-4-F1384 (antibody, human IgG1, kappa)
heavy: QVQLQESGPGLVKPSETLSLTCAVSGHSISHDHAWSWVRQPPGEGLEWIGFISYSGITNYNPSLQGRVTISRDNSKNTLYLQMNSLRAEDTAVYYCARSLARTTAMDYWGEGTLVTVSSASTKGPSVFPLAPSSKSTSGGTAALGCLVKDYFPEPVTVSWNSGALTSGVHTFPAVLQSSGLYSLSSVVTVPSSSLGTQTYICNVNHKPSNTKVDKKVEPKSCDKTHTCPPCPAPELLGGPSVFLFPPKPKDTLMISRTPEVTCVVVDVSHEDPEVKFNWYVDGVEVHNAKTKPREEQYNSTYRVVSVLTVLHQDWLNGKEYKCKVSNKALPAPIEKTISKAKGQPREPQVYTLPPSRDELTKNQVSLTCLVKGFYPSDIAVEWESNGQPENNYKTTPPVLDSDGSFFLYSKLTVDKSRWQQGNVFSCAVLHEALHSHYTQKSLSLSP
light: DIQMTQSPSSLSASVGDSVTITCQASTDISSHLNWYQQKPGKAPELLIYYGSHLLSGVPSRFSGSGSGTDFTFTISSLEAEDAATYYCGQGNRLPYTFGQGTKVEIERTVAAPSVFIFPPSDEQLKSGTASVVCLLNNFYPREAKVQWKVDNALQSGNSQESVTEQDSKDSTYSLSSTLTLSKADYEKHKVYACEVTHQGLSSPVTKSFNRGEC
B6: Fv-4-F1381 (antibody, human IgG1, kappa)
heavy: QVQLQESGPGLVKPSETLSLTCAVSGHSISHDHAWSWVRQPPGEGLEWIGFISYSGITNYNPSLQGRVTISRDNSKNTLYLQMNSLRAEDTAVYYCARSLARTTAMDYWGEGTLVTVSSASTKGPSVFPLAPSSKSTSGGTAALGCLVKDYFPEPVTVSWNSGALTSGVHTFPAVLQSSGLYSLSSVVTVPSSSLGTQTYICNVNHKPSNTKVDKKVEPKSCDKTHTCPPCPAPELLGGPSVFLFPPKPKDTLMISRTPEVTCVVVDVSHEDPEVKFNWYVDGVEVHNAKTKPREEQYNSTYRVVSVLTVLHQDWLNGKEYKCKVSNKALPAPIEKTISKAKGQPREPQVYTLPPSRDELTKNQVSLTCLVKGFYPSDIAVEWESNGQPENNYKTTPPVLDSDGSFFLYSKLTVDKSRWQQGNVFSCEVLHEALHSHYTQKSLSLSP
light: DIQMTQSPSSLSASVGDSVTITCQASTDISSHLNWYQQKPGKAPELLIYYGSHLLSGVPSRFSGSGSGTDFTFTISSLEAEDAATYYCGQGNRLPYTFGQGTKVEIERTVAAPSVFIFPPSDEQLKSGTASVVCLLNNFYPREAKVQWKVDNALQSGNSQESVTEQDSKDSTYSLSSTLTLSKADYEKHKVYACEVTHQGLSSPVTKSFNRGEC
B7: Fv-4-F1380 (antibody, human IgG1, kappa)
heavy: QVQLQESGPGLVKPSETLSLTCAVSGHSISHDHAWSWVRQPPGEGLEWIGFISYSGITNYNPSLQGRVTISRDNSKNTLYLQMNSLRAEDTAVYYCARSLARTTAMDYWGEGTLVTVSSASTKGPSVFPLAPSSKSTSGGTAALGCLVKDYFPEPVTVSWNSGALTSGVHTFPAVLQSSGLYSLSSVVTVPSSSLGTQTYICNVNHKPSNTKVDKKVEPKSCDKTHTCPPCPAPELLGGPSVFLFPPKPKDTLMISRTPEVTCVVVDVSHEDPEVKFNWYVDGVEVHNAKTKPREEQYNSTYRVVSVLTVLHQDWLNGKEYKCKVSNKALPAPIEKTISKAKGQPREPQVYTLPPSRDELTKNQVSLTCLVKGFYPSDIAVEWESNGQPENNYKTTPPVLDSDGSFFLYSKLTVDKSRWQQGNVFSCDVLHEALHSHYTQKSLSLSP
light: DIQMTQSPSSLSASVGDSVTITCQASTDISSHLNWYQQKPGKAPELLIYYGSHLLSGVPSRFSGSGSGTDFTFTISSLEAEDAATYYCGQGNRLPYTFGQGTKVEIERTVAAPSVFIFPPSDEQLKSGTASVVCLLNNFYPREAKVQWKVDNALQSGNSQESVTEQDSKDSTYSLSSTLTLSKADYEKHKVYACEVTHQGLSSPVTKSFNRGEC
B8: Fv-4-F1383 (antibody, human IgG1, kappa)
heavy: QVQLQESGPGLVKPSETLSLTCAVSGHSISHDHAWSWVRQPPGEGLEWIGFISYSGITNYNPSLQGRVTISRDNSKNTLYLQMNSLRAEDTAVYYCARSLARTTAMDYWGEGTLVTVSSASTKGPSVFPLAPSSKSTSGGTAALGCLVKDYFPEPVTVSWNSGALTSGVHTFPAVLQSSGLYSLSSVVTVPSSSLGTQTYICNVNHKPSNTKVDKKVEPKSCDKTHTCPPCPAPELLGGPSVFLFPPKPKDTLMISRTPEVTCVVVDVSHEDPEVKFNWYVDGVEVHNAKTKPREEQYNSTYRVVSVLTVLHQDWLNGKEYKCKVSNKALPAPIEKTISKAKGQPREPQVYTLPPSRDELTKNQVSLTCLVKGFYPSDIAVEWESNGQPENNYKTTPPVLDSDGSFFLYSKLTVDKSRWQQGNVFSCRVLHEALHSHYTQKSLSLSP
light: DIQMTQSPSSLSASVGDSVTITCQASTDISSHLNWYQQKPGKAPELLIYYGSHLLSGVPSRFSGSGSGTDFTFTISSLEAEDAATYYCGQGNRLPYTFGQGTKVEIERTVAAPSVFIFPPSDEQLKSGTASVVCLLNNFYPREAKVQWKVDNALQSGNSQESVTEQDSKDSTYSLSSTLTLSKADYEKHKVYACEVTHQGLSSPVTKSFNRGEC
B9: Fv-4-F1385 (antibody, human IgG1, kappa)
heavy: QVQLQESGPGLVKPSETLSLTCAVSGHSISHDHAWSWVRQPPGEGLEWIGFISYSGITNYNPSLQGRVTISRDNSKNTLYLQMNSLRAEDTAVYYCARSLARTTAMDYWGEGTLVTVSSASTKGPSVFPLAPSSKSTSGGTAALGCLVKDYFPEPVTVSWNSGALTSGVHTFPAVLQSSGLYSLSSVVTVPSSSLGTQTYICNVNHKPSNTKVDKKVEPKSCDKTHTCPPCPAPELLGGPSVFLFPPKPKDTLMISRTPEVTCVVVDVSHEDPEVKFNWYVDGVEVHNAKTKPREEQYNSTYRVVSVLTVLHQDWLNGKEYKCKVSNKALPAPIEKTISKAKGQPREPQVYTLPPSRDELTKNQVSLTCLVKGFYPSDIAVEWESNGQPENNYKTTPPVLDSDGSFFLYSKLTVDKSRWQQGNVFSCQVLHEALHSHYTQKSLSLSP
light: DIQMTQSPSSLSASVGDSVTITCQASTDISSHLNWYQQKPGKAPELLIYYGSHLLSGVPSRFSGSGSGTDFTFTISSLEAEDAATYYCGQGNRLPYTFGQGTKVEIERTVAAPSVFIFPPSDEQLKSGTASVVCLLNNFYPREAKVQWKVDNALQSGNSQESVTEQDSKDSTYSLSSTLTLSKADYEKHKVYACEVTHQGLSSPVTKSFNRGEC

The target in one test is T1, soluble human FcRn (human, UniProt P55899 24-297; P61769 21-119).
T1 construct: Heterodimer of alpha chain and beta2-microglobulin; also called hFcRn
T1 sequence (P55899 24-297 limits assumed, chain 1 of 2): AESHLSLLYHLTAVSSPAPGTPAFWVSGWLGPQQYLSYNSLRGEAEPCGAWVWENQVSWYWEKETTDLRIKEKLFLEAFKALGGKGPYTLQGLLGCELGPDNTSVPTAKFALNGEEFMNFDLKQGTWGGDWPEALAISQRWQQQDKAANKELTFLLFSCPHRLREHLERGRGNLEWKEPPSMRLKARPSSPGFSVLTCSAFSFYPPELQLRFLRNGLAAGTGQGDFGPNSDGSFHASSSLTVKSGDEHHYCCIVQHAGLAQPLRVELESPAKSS
T1 sequence (P61769 21-119 limits assumed, chain 2 of 2): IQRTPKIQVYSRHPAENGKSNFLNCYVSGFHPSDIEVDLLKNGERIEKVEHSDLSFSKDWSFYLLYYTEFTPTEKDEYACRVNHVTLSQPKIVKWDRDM
The experiment in a line: SPR (Biacore), pH 7.0. (In general: Surface plasmon resonance follows binding to a sensor surface in real time, without labels.)
In the case of B1, binding was characterised by a dissociation constant (Kd) of 280 nM.

Another test deals with T1, soluble human FcRn. The experiment in a line: SPR (Biacore), pH 6.0.
B2 came in with a Kd of 130 nM.
Still for that read-out and setting: the result for B3 reads 80 nM; that for B4, 160 nM; that for B5, 86 nM.
With B6, the Kd is 86 nM.
The molecule B7 registered a Kd of 73 nM.
On the same count and under the same terms, under B8 stands 160 nM; under B9, 77 nM.

As usually defined, the Kd is the equilibrium constant for the complex coming apart. Low values mean tighter binding, high ones weaker binding.
